Test results published in patent US20180244734A1.

Biological target: anti-BBP1 polyclonal antibody
Experiment: competitive ELISA, free peptide against coated BBP1-biotin peptide for the anti-BBP1 polyclonal antibody

- lowest level detected: 2.5 µg/mL
Binder: HSYSTNSFSRTTNG [BBP1 peptide (SEQ ID No. 7)]
